System: GFP-CBP fusion protein (green fluorescent protein with C-terminal thrombin-cleavable calmodulin binding peptide tag, expressed from GFP Clone No. 2995-87.6 in BL21(DE3) cells) [GFP: P42212]

thrombin
cleavage of the fusion protein by thrombin at 6 h: Fifty percent cleavage was observed at 6 h
cleavage of the fusion protein by thrombin at 24 h: 95 percent cleavage was achieved at 24 h

From US20010016351
